Measurements from US20250009852A1, “DEPLETING EGFR AND HER2 OVERCOMES RESISTANCE TO EGFR INHIBITORS IN COLORECTAL CANCER” (Health Research, Inc., priority 2021, published 2025).

What was measured:
[1] = target: Epidermal growth factor receptor (EGFR), wild type, P00533
[2] = target: T1, Epidermal growth factor receptor (EGFR), wild type (human, UniProt P00533 25-1210); test: immunofluorescence staining and confocal microscopy of SW48 cells treated with PEPD^G278D (25 nM), anti-His tag and anti-EGFR
T1 construct: whole, on cells; also called WT EGFR; ErbB1
Experimental: The cells were then washed with ice-cold PBS, fixed with 4% paraformaldehyde for 20 min at room temperature (RT), washed again with ice-cold PBS and blocked with 1% BSA in PBS for 1 h at RT. […] The cells were then examined with a BZ-X700 fluorescence microscope (Keyence) with a S PL FL ELWD ADM 40xC objective. Merged images from Z-stack were organized using the ImageJ software (NIH Image).
SW48 cells were cultured in serum-free medium.

- binding result [2]: binds
B1: PEPD^G278D (recombinant, enzymatically inactive mutant of human peptidase D, glycine 278 replaced by aspartic acid) (enzyme)
chain: AAATGPSFWLGNETLKVPLALFALNRQRLCERLRKNPAVQAGSIVVLQGGEETQRYCTDTGVLFLQESFFHWAFGVTEPGCYGVIDVDTGKSTLFVPRLPASHATWMGKIHSKEHFKEKYAVDDVQYVDEIASVLTSQKPSVLLTLRGVNTDSGSVCREASFDGISKFEVNNTILHPEIVESRVFKTDMELEVLRYTNKISSEAHREVMKAVKVGMKEYGLESLFEHYCYSRGGMRHSSYTCICGSGENSAVLHYGHAGAPNDRTIQNGDMCLFDMDGEYYSVASDITCSFPRNGKFTADQKAVYEAVLLSSRAVMGAMKPGDWWPDIDRLADRIHLEELAHMGILSGSVDAMVQAHLGAVFMPHGLGHFLGIDVHDVGGYPEGVERIDEPGLRSLRTARHLQPGMVLTVEPGIYFIDHLLDEALADPARASFLNREVLQRFRGFGGVRIEEDVVVIDSGIELLTCVPRTVEEIEACMAGCDKAFTPFSGPK
notes: Made in E. coli and purified by nickel chromatography; The His tag is placed C-terminal by the plasmid's name only; also called PEPD^G278D-His; hPEPD-G278D; not shown: His tag from pBAD/TOPO-PEPD^G278D-His
- expression and tyrosine phosphorylation of EGFR (Western blotting, 25 nM, 48 h) [1]: PEPD^G278D obliterated both expression and tyrosine phosphorylation of EGFR and HER2 in SW48, HCT116 and HT29 cells
- expression and tyrosine phosphorylation of HER2 (Western blotting, 25 nM, 48 h) (HER2, P04626): PEPD^G278D obliterated both expression and tyrosine phosphorylation of EGFR and HER2 in SW48, HCT116 and HT29 cells
